The record followed here is patent publication US20190092852A1 (Genentech, published 2019).

B1: 10H2.36.F10.30V.54D (antibody, V domains shown)
VH: EVQLVESGGGLVQPGGSLRLSCAASGFTFSNYWMNWVRQAPGKGLEWMAEITLKFNDYSTHYAESVKGRFTISRDNSKNTVYLQMNSLRAEDTAVYYCARRNYGNWYINVWGQGTLVTVSS
VL: DIVMTQSPDSLAVSLGERATINCRASESVDKFGVSFLNWYQQKPGQPPKLLIFVASSQGSGVPDRFSGSGSGTDFTLTISSLQAEDVAVYYCQQSKDIPYTFGQGTKVEIK
notes: Humanized variant of 10H2
B2: 2B6.54S (antibody, V domains shown)
VH: EVQLVQSGAEVKKPGASVKVSCKASGYTFSDYNMNWVRQAPGQGLESIGDINPKSGDTFYNQNFKDRATLTIDKSTSTAYLELSSLRSEDTAVYYCARHYYYGSSYGGFVYWGQGTLVTVSS
VL: DIQMTQSPSSLSASVGDRVTITCHASQNINVWLSWYQQKPGKNPKLLIYAASKLHTGVPSRFSGSGSGTDFTLTISSLQPEDFATYYCQQGQSYPLTFGQGTKVEIK
notes: Humanized variant of 2B6
B3: 2B6.55A (NA) (antibody, V domains shown)
VH: B2 VH with S55N, G56A
VL: B2 VL
notes: Humanized variant of 2B6
B4: H4H9664P (antibody, V domains shown)
VH: QVQLVESGGGVVQPGRSLRLSCAASGFTFSSYGLHWVRQSPGKGLEWVALISYDGSNKYYADSVKGRFTISRDNSKNTLYLQMNSLRPEDTAGYFCAKSLYTTSWYGGFDYWGQGTLVTVSS
VL: DIQMTQSPSSVSASVGDRVTITCRASQGIRSWLAWYQQKPGKAPNLLIYAASSLQSGVPSRFSGSGSGTDFTLTISSLQPEDFATYYCQQANSFPPTFGPGTKVDIK
B5: H4H9666P (antibody, V domains shown)
VH: QVQLVQSGAEVKKPGASVKVSCKASGYTFTSYGISWVRQAPGQGLEWMGWIRAYNGYTNYAQKFQGRVTMTTDTSTNTAYMELRTLNSDDTAVYYCARDRYSGSFHGNFDYWGQGTLVTVSS
VL: B4 VL with R30F, N45K, L46V, S53N, Q55E, F94L, P96L, P100G, D105E
B6: H4H9676P (antibody, V domains shown)
VH: EVQLVESGGGLVQPGGSLRLSCSASGFTFSSYAMNWVRQAPGKGLEWVTAISGSGGGTYYADSVKGRFTISRDNSKNSLFLQLNSLRAEDTAVYYCAKQTYTSSWYGGFDIWGQGTMVTVSS
VL: B4 VL with I29F, R30S, K39I, N45K, S53R, S63R, P96L, P100G, D105E
B7: H4H9667P (antibody, V domains shown)
VH: EVQLVESGGGLVQPGGSLRLSCAASGFTFSTYSMHWVRQAPGKGLEYVSTINNNGDTTYYADSVKGRFTISRDNSKNTLYLQLGSLRPEDMAVYYCARQTYTSSWYGGFDSWGQGTLVTVSS
VL: B4 VL with R30T, N45K, S53N, S76T, F94L, P96F
B8: H4H9672P (antibody, V domains shown)
VH: EVQLVESGGGLVQPGGSLRLSCAASGFTLRSYVMYWVRQGPGKGLEGVSGISGSSGGTYYTDSVKGRFTISRDNSKNTLFLQMNSLRAEDTAVYFCARSVYSTTWYGGFQHWGQGTLVTVSS
VL: DIQMTQSPSSVSVSVGDRVTITCRASQVISSWLAWYQLKPGKAPKLLIYAASSLQSGVPSRFSGSGSGTDFTLTISGLQPEDFAVYYCQQTNSFPLTFGGGTKVEIK
B9: H4H9670P (antibody, V domains shown)
VH: EVQLVESGGGLVQPGGSLRLSCAASGFTLSSYAMSWVRQAPGKGLEWVSAISGSGGSTYYADSVKGRFTISRDNSKNSLYLQLNSLRAEDTAVYYCAKTLYTTSWYGGFQHWGQGTLVTVSS
VL: DIQMTQSPSSVSASIGDRVTITCRASQGISSWLAWYQQKPGKVPKLLIYAASSLQSGFPSRFSGSGSGTDFTLTISSLQPEDFATYYCQQTHSFPWTVGQGTKVEIK

Substitutions are numbered along the chain they refer to. Where “and” joins values, the source holds several entries; their conditions need not be identical. Identical values can stand only once. A value given as a limit tells only on which side of the number the result lay.

The target of the first experiment is T1, human IL-33 (Genentech, huIL33.his) (human, UniProt O95760 112-270).
T1 sequence (looked up): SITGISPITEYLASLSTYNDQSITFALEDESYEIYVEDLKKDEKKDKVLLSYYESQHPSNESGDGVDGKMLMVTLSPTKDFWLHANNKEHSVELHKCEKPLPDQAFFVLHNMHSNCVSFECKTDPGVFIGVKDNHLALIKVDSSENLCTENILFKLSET
Description: SPR Biacore. (In general: Surface plasmon resonance follows binding to a sensor surface in real time, without labels.)
Turning to B1, binding was put at a Kd of 0.22 nM.

In turn, B2 yielded a Kd of 336 nM.

B3 registered a dissociation constant Kd of 0.363 nM.

The target in the next experiment is T2, human IL-33 (cell-based blocking assay of Example 2) (human, UniProt O95760 112-270).
T2 sequence (looked up): T1 sequence (looked up)
Kind of experiment: cell-based or functional assay.
For the molecule B1, the “Cell assay (hu) IC90” value was 0.344 µg/mL and 2.27 nM.

The target in a further experiment is T3, cyno IL-33 (cell-based blocking assay of Example 2) (cynomolgus monkey, UniProt A0A2K5W3I1 95-269).
T3 sequence: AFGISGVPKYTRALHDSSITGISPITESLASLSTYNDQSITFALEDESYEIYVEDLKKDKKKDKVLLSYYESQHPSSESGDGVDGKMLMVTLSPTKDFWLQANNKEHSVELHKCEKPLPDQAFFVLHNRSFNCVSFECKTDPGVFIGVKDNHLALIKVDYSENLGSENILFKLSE
Kind of experiment: cell-based or functional assay.
For B1, the “Cell assay (cy) IC90” value was > 1.5 µg/mL and > 9.9 nM.

A further experiment deals with T4, cyno IL-33 N-His (cynomolgus monkey).
T4 chain: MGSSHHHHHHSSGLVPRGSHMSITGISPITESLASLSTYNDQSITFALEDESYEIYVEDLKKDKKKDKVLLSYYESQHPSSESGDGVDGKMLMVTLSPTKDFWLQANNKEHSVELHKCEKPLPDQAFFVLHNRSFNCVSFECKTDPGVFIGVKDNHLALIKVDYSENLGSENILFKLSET
Kind of experiment: SPR Biacore T200, 25 C. On the procedure:
(§1) The binding kinetics of the anti-IL-33 antibody 10C12.38.H6.87Y.58I IgG4 and each anti-IL-33 antibody listed in Table 5 (RG1-RG20) to IL-33 were measured using surface plasmon resonance (SPR) on a BIACORE® T200 instrument (GE Healthcare). Anti-human Fc or anti-murine Fc (GE Healthcare, #BR-1008-39 or BR-1008-38, respectively) was immobilized on a CM5 sensor chip via amine-based coupling according to the manufacturer's protocol. Surfaces were used to capture monoclonal human IgG4 and monoclonal murine IgGs for kinetic studies. Antibody binding was measured to human IL-33 (R&D systems, #3625-IL-010/CF) and cyno IL-33 N-His (SEQ ID NO: 317) (Genentech, Inc.). A three-fold concentration series of cytokine with a range of 3.7 to 100 nM was used for the experiments. Sensograms for binding of IL-33 were recorded using an injection time of 4 min with a flow rate of 30 μl/minute with a running buffer of 0.01 M N-(2-Acetamido)iminodiacetic acid (ADA) pH 7.4, 0.15 M NaCl, 3 mM EDTA, and 0.05% TWEEN®-20. After injection, disassociation of the ligand from the antibody was monitored for 10 min in running buffer. The surface was regenerated in between cycles with an injection of 3 M magnesium chloride or Glycine-HCl pH 1.7. All binding experiments were performed at a temperature of 25′C and 37° C. After subtraction of a blank which contained running buffer only, sensograms observed for IL-33 binding to anti-IL-33 antibodies were analyzed using a 1:1 Langmuir binding model with software supplied by the manufacturer to calculate the kinetics and binding constants, including the dissociation constant (KD). Dissociative half-lives (t_{1/2}) were calculated from the kinetic rate constants. KD (M)=koff/kₒₙ and t_{1/2} (min)=ln(2)/(60*koff). […] In Tables 6-9, *IC indicates the result is inconclusive due to weak capture of antibody was observed, leading to poor binding data.
Consider B4, for which the Kd worked out at 5.62 nM, the koff came out at 0.000556 s⁻¹, the kon amounted to 99000 M⁻¹ s⁻¹ and the t1/2 stood at 21 min.

In turn, B5 registered a Kd of 38 nM, a koff of 0.00625 s⁻¹, a kon of 164000 M⁻¹ s⁻¹ and a t1/2 of 2 min.

In turn, B6 gave a Kd of 3.15 nM, a koff of 0.00248 s⁻¹, a kon of 787000 M⁻¹ s⁻¹ and a t1/2 of 5 min.

Consider B7, for which the Kd was found to be 2.83 nM, the koff was 0.00059 s⁻¹, the kon is 208000 M⁻¹ s⁻¹ and the t1/2 is 20 min.

As to B8, the equilibrium dissociation constant (Kd) was 5.74 nM, the koff was 0.0019 s⁻¹, the kon was 331000 M⁻¹ s⁻¹ and the t1/2 is 6 min.

B9 displayed a Kd of 2.63 nM, a koff of 0.000557 s⁻¹, a kon of 212000 M⁻¹ s⁻¹ and a t1/2 of 21 min.

Another experiment has as its target T4, cyno IL-33 N-His. Kind of experiment: SPR Biacore T200, 37 C. On the procedure: as §1
The molecule B4 gave a Kd of 10.4 nM, a koff of 0.00213 s⁻¹, a kon of 205000 M⁻¹ s⁻¹ and a t1/2 of 5 min.

In turn, B5 showed a Kd of 47.4 nM, a koff of 0.0139 s⁻¹, a kon of 293000 M⁻¹ s⁻¹ and a t1/2 of 1 min.

Molecule B6 gave an equilibrium dissociation constant (Kd) of 6.93 nM, a koff of 0.0111 s⁻¹, a kon of 1.6e+06 M⁻¹ s⁻¹ and a t1/2 of 1 min.

B7 came in with a Kd of 5.38 nM, a koff of 0.00214 s⁻¹, a kon of 398000 M⁻¹ s⁻¹ and a t1/2 of 5 min.

B8: the Kd is 13 nM, the koff was 0.00757 s⁻¹, the kon was found to be 584000 M⁻¹ s⁻¹ and the t1/2 was determined as 2 min.

For the molecule B9, the Kd was found to be 5.82 nM, the koff turned out to be 0.00221 s⁻¹, the kon was determined as 380000 M⁻¹ s⁻¹ and the t1/2 turned out to be 5 min.

Another experiment deals with T5, biotinylated cyno IL-33 (cynomolgus monkey, UniProt A0A2K5W3I1 112-269, biotin-labeled with EZ-LINK NHS-PEG4-Biotin).
T5 construct: also called biotin-cyIL-33
T5 sequence: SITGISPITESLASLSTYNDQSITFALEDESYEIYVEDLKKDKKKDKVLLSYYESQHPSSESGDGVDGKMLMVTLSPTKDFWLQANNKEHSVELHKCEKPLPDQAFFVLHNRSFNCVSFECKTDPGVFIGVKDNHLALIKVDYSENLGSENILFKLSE
Kind of experiment: competitive ELISA, biotin-cyIL-33 to coated hST2-Fc. On the procedure:
The ability of the anti-IL-33 antibody 10C12.38.H6.87Y.58I IgG4 and each anti-IL-33 antibody listed in Table 5 (RG1-RG20) to block either human IL-33 or cyno IL-33 binding to human ST2 receptor was tested in a competitive binding ELISA. Briefly, 1 μg/ml of recombinant human ST2-Fc chimera protein prepared in coating buffer (50 mM sodium carbonate, pH 9.6) was coated on a 384-well MAXISORP® plate (Nalgene Nunc International; Rochester, N.Y.) and incubated overnight at 4° C. On the next day, non-specific binding was blocked with PBS containing 0.5% (w/v) solution of bovine serum albumin (BSA). Fixed concentrations of biotinylated human or cyno IL-33 prepared in assay buffer (25 mM PBS, pH 7.2, 0.1% BSA, 0.05% TWEEN®-20) were mixed with an equal volume of serially-diluted anti-IL-33 antibodies or assay buffer alone and incubated for 1 h at room temperature. The final assay concentrations of biotinylated human IL-33 or cyno IL-33 were 20 pM and 45 pM, respectively, and the final assay concentration of each antibody ranged from 0-300 nM. The pre-mixed solutions were added to the ST2-Fc coated plate and incubated for 1 h at room temperature. The binding of biotinylated IL-33 to coated ST2-Fc was detected by the sequential addition of Streptavidin Poly-HRP80 (Fitzgerald; Buckinghamshire, UK) and 3,3′,5,5′-tetramethyl benzidine (TMB) Microwell Peroxidase Substrate System (KPL; Gaithersburg, Md.). The absorbance (450 nm) was recorded using a […] ASCENT® plate reader (Thermo Scientific; Rockford, Ill.). The binding activity (%) of biotin-IL-33 to ST2 in the presence of anti-IL-33 was plotted as a function of antibody concentration. The data generated were fitted to a four-parameter equation to determine IC₅₀ values for each antibody (FIGS. 25A and 25B) using Prism software (Graphpad Software; La Jolla, Calif.). The maximum blocking (%) of each antibody was calculated as the ratio of the reduction in signal measured in the presence of antibody relative to the difference between the signal with IL-33 alone and background measurements.
For B4, the “Maximum Blocking” value worked out at 10%.

B7: the “Maximum Blocking” value turned out to be 7%.

As for B9, the IC50 is 150 nM and the “Maximum Blocking” value was 27%.

The term Kd denotes the concentration at which binding is half-saturated. By koff is commonly meant the first-order rate constant of dissociation. Lower therefore signals slow dissociation. Usually kon stands for the rate constant with which the complex forms. As a reminder, the IC50 is the concentration at which inhibition is half-maximal.
